Publication PMC6070508

What was measured:
[1] = target: 2:1 8D6 Fab/IgE-Fc complex; assay: SPR; IgE-Fc captured on an 8D6 Fab surface, then saturated with 100 nM 8D6 Fab (2:1 8D6 Fab/IgE-Fc complex); derCD23 injected at 10 to 0.156 uM; HBS-P with 5 mM CaCl2, 25 °C
[2] = target: 1:1 8D6 Fab/IgE-Fc complex; assay: SPR; IgE-Fc captured on an 8D6 Fab surface (1:1 8D6 Fab/IgE-Fc complex); derCD23 injected at 10 to 0.156 uM; HBS-P with 5 mM CaCl2, 25 °C
Chain of 1:1 8D6 Fab/IgE-Fc complex (heavy, as listed by the source, chain 1 of 2): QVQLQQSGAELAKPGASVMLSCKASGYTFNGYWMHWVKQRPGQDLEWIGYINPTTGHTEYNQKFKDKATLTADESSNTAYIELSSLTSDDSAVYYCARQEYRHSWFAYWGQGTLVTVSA
Chain of 1:1 8D6 Fab/IgE-Fc complex (light, as listed by the source, chain 2 of 2): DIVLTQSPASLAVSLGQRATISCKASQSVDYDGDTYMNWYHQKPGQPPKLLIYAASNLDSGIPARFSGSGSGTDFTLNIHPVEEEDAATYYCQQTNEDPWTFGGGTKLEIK

Chain of 2:1 8D6 Fab/IgE-Fc complex (heavy, as listed by the source, chain 1 of 2): as the sequence (heavy, as listed by the source, chain 1 of 2) above
Chain of 2:1 8D6 Fab/IgE-Fc complex (light, as listed by the source, chain 2 of 2): as the sequence (light, as listed by the source, chain 2 of 2) above

A Kd [1] of 1700 nM and a Kd [2] of 1700 nM were found for derCD23 (domain or fragment) in this work.
